Results reported in patent US20260109776A1 (Amgen, published 2026).
Where two headings read alike, the source gives them in different places. Values belong to the binder of their own block, whether it stands above or below them.

What was measured:
[1] = target: T1, human CD40 on cells (human, UniProt P25942 21-277); assay: cell-based or functional assay
[2] = target: T1, human CD40 on cells; assay: flow cytometry, labelled CD40L on CD40-293T cells, antibody at 5 ug/ml
Experimental: (§1) Percent ligand binding inhibition was calculated as [(CD40L binding gMFI in the absence of anti-CD40)−(CD40L binding gMFI in the presence of anti-CD40)]/(CD40L binding gMFI in the absence of anti-CD40). gMFI: geometric mean fluorescent intensity. All anti-CD40 antibodies show minimal effects on the ability of CD40L to bind to the CD40 receptor (Table 7).
Target sequence in this assay (P25942 21-277 limits assumed): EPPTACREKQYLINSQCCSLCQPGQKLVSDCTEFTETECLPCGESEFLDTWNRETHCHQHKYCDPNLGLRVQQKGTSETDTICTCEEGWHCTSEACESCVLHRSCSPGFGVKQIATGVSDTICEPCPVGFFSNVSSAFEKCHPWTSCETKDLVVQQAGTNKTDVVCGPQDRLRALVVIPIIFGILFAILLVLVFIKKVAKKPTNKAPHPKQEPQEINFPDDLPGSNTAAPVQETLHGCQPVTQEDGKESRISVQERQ

[3] = target: T2, cynomolgus monkey CD40 (cynomolgus monkey, UniProt P25942 21-193 (human entry), limits assumed); assay: Octet
T2 chain: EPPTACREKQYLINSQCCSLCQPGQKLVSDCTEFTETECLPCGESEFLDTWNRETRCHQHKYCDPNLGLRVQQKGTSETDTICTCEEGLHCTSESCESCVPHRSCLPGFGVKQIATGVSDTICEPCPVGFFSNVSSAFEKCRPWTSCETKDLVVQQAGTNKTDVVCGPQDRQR
Experimental: (§2) The binding affinity of anti-human CD40 antibodies to human and cynomolgus monkey CD40 was measured by Octet assay (Table 3), quantifying association rate (Kon), disassociation rate (Kdis), and equilibrium binding constant (KD). Cross-reactivity of anti-CD40 antibodies to related TNF receptor superfamily (TNFRSF) members was evaluated by expressing human TNFR1, TNFR2, TNFR10, or TNFR14 on HEK293 cells by transient transfection of expression vectors encoding these genes. Binding of indicated anti-human CD40 antibody to these transfected cells was determined by flow cytometry. […] Cross-reactivity of anti-CD40 antibodies to cynomolgus monkey and mouse CD40 was evaluated by expressing cynomolgus monkey or mouse CD40 on HEK293 cells by transient transfection of expression vectors encoding these genes. Binding of indicated anti-human CD40 antibody to cells overexpressing cynomolgus monkey and mouse CD40 was determined by flow cytometry.

[4] = target: human CD40 (human, UniProt P25942 21-193, limits assumed); assay: Octet
Experimental: as §2

[5] = target: T3, mouse CD40 on cells (mouse, UniProt P27512 20-289); assay: flow cytometry, HEK293 transfectants
T3 construct: whole, on cells; also called mouse CD40 on HEK293 cells; CD40 on mouse B cells
T3 sequence (looked up): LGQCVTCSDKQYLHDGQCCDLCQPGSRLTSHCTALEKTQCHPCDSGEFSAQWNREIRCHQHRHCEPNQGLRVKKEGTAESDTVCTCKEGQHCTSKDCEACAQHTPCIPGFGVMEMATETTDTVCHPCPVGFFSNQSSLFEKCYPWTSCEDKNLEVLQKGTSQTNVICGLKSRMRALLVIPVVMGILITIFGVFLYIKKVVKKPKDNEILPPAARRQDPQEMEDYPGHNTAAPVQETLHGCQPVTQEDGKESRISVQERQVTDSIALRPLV

[6] = target: T4, human TNFR1 (human, UniProt P19438 30-455); assay: flow cytometry, HEK293 transfectants
T4 construct: whole, on cells
T4 sequence (looked up): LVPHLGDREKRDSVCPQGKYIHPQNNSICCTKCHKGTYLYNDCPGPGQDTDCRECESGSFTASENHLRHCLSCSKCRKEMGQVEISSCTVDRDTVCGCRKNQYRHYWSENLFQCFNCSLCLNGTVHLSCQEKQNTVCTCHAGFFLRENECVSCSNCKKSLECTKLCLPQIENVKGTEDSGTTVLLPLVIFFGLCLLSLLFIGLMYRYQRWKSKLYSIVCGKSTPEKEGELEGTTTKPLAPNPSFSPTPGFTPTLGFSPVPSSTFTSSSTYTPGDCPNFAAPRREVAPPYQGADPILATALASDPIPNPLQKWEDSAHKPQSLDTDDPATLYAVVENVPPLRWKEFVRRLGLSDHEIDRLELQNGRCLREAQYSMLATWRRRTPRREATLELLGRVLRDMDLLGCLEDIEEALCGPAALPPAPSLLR
Experimental: as §2

[7] = target: T5, human TNFR14 (human, UniProt Q92956 39-283); assay: flow cytometry, HEK293 transfectants
T5 construct: whole, on cells
T5 sequence (looked up): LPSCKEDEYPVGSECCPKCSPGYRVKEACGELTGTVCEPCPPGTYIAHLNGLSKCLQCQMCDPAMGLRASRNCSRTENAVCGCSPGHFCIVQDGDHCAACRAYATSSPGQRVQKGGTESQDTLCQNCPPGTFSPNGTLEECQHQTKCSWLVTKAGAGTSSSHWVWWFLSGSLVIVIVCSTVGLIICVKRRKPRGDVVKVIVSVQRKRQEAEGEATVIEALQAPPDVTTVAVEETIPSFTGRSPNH
Experimental: as §2

[8] = target: T6, human TNFR2 (human, UniProt P20333 23-461); assay: flow cytometry, HEK293 transfectants
T6 construct: whole, on cells
T6 sequence (looked up): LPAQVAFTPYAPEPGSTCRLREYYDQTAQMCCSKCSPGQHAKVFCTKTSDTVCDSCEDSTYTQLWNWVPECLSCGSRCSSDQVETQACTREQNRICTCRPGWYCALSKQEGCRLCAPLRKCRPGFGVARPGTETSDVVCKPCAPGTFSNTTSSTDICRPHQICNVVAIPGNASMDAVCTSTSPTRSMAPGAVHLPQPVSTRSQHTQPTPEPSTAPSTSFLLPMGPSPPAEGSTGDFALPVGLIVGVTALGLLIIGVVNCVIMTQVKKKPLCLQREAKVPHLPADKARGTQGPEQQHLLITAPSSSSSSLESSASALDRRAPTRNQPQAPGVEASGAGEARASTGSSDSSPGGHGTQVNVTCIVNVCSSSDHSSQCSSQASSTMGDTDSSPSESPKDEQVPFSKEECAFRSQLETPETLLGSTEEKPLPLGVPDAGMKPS
Experimental: as §2

[9] = target: T1, human CD40 on cells; assay: cell-based or functional assay; remark: listed apart in the source
Target sequence in this assay (P25942 21-277 limits assumed): as the sequence (P25942 21-277 limits assumed) above

[10] = target: T1, human CD40 on cells; assay: flow cytometry, labelled CD40L on CD40-293T cells, antibody at 2.5 ug/ml
Experimental: as §1
Target sequence in this assay (P25942 21-277 limits assumed): as the sequence (P25942 21-277 limits assumed) above

[11] = target: T1, human CD40 on cells; assay: flow cytometry, labelled CD40L on CD40-293T cells, antibody at 20 ug/ml
Experimental: as §1
Target sequence in this assay (P25942 21-277 limits assumed): as the sequence (P25942 21-277 limits assumed) above

human CD40, sequence (P25942 21-193 limits assumed): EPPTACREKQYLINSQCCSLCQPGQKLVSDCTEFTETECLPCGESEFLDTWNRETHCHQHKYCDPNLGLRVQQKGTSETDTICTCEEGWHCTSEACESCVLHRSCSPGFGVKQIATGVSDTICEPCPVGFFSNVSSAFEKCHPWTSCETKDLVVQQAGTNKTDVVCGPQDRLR

human B cell proliferation, no crosslinking, EC50 [1]: > 16.7 nM | human B cell proliferation, no crosslinking, Max Fold Change [1]: 1.33 fold | human B cell proliferation, with protein G crosslinking, EC50 [1]: 0.371 nM | human B cell proliferation, with protein G crosslinking, Max Fold Change [1]: 24.2 fold | Ligand Binding Inhibition (%) [2]: -5% | Kd [3]: 0.62 nM | koff [3]: 0.000314 s⁻¹ | kon [3]: 506000 M⁻¹ s⁻¹ | Kd [4]: 0.55 nM | koff [4]: 0.00031 s⁻¹ | kon [4]: 556000 M⁻¹ s⁻¹ | binding result [5]: no binding | binding result [6]: no binding | binding result [7]: no binding | binding result [8]: no binding | human B cell proliferation, no crosslinking, % Max Activity [9]: 4.4% | human B cell proliferation, no crosslinking, EC50 [9]: > 16.7 nM | human B cell proliferation, with protein G crosslinking, % Max Activity [9]: 120% | human B cell proliferation, with protein G crosslinking, EC50 [9]: 0.3 nM | Ligand Binding Inhibition (%) [10]: -15% | Ligand Binding Inhibition (%) [11]: 8%
B1: 35F11 (antibody, IgG4, V domains shown)
VH: QVQLVESGGGVVQPGRSLRLSCAASGFTLSSYGMHWVRQAPGKGLEWVAVIWYDGSNKYYADSVKGRVTISRDNSKNTLYLQMNSLRAEDTAVYYCTRDGRNYVYFDNWGQGTLVTVSS
VL: QSALTQPRSVSGSPGQSVTISCTGTSSDVGGYIFVSWYQQHPGKAPKLMIYDVSKRPSGVPDRFSGSKSVNTASLTISGLQAEDETDYYCCSYAGNYTYVFGTGTKVTVLG
notes: also called 4868-1

human B cell proliferation, no crosslinking, EC50 [1]: > 16.7 nM | human B cell proliferation, no crosslinking, Max Fold Change [1]: 1.24 fold | human B cell proliferation, with protein G crosslinking, EC50 [1]: 0.529 nM | human B cell proliferation, with protein G crosslinking, Max Fold Change [1]: 23 fold | Ligand Binding Inhibition (%) [2]: -6% | Kd [3]: 0.73 nM | koff [3]: 0.000376 s⁻¹ | kon [3]: 518000 M⁻¹ s⁻¹ | Kd [4]: 1.02 nM | koff [4]: 0.000614 s⁻¹ | kon [4]: 599000 M⁻¹ s⁻¹ | binding result [5]: no binding | binding result [6]: no binding | binding result [7]: no binding | binding result [8]: no binding | human B cell proliferation, no crosslinking, % Max Activity [9]: 6.1% | human B cell proliferation, no crosslinking, EC50 [9]: > 16.7 nM | human B cell proliferation, with protein G crosslinking, % Max Activity [9]: 76.6% | human B cell proliferation, with protein G crosslinking, EC50 [9]: 0.21 nM | Ligand Binding Inhibition (%) [10]: 7% | Ligand Binding Inhibition (%) [11]: 2%
B2: 39C2 (antibody, IgG4, V domains shown)
VH: QVQLVQSGTEVKKPGASVKVSCKASGYTFPGYYMHWVRQAPGQGLEWMGWINPDSGGTKYTQKFQGRVTLTRDASVSTAYIDLNRLRSDDTAVYYCARERCRTTNCYLDYWGQGSLVTVSS
VL: QSALTQPASVSGSPGQSITISCTGTSSDVGNYNLVSWYQQHPGKAPKLMIYEVNRRPSGVSNRFSGSKSGNTASLTISGLQAEDEAEYYCCSYAGRDTFVVFGGGTKLTVLG
notes: also called 4887-1

human B cell proliferation, no crosslinking, EC50 [1]: > 16.7 nM | human B cell proliferation, no crosslinking, Max Fold Change [1]: 1.45 fold | human B cell proliferation, with protein G crosslinking, EC50 [1]: 0.362 nM | human B cell proliferation, with protein G crosslinking, Max Fold Change [1]: 23.8 fold | Ligand Binding Inhibition (%) [2]: -15% | Kd [3]: 0.56 nM | koff [3]: 0.000306 s⁻¹ | kon [3]: 544000 M⁻¹ s⁻¹ | Kd [4]: 0.69 nM | koff [4]: 0.000368 s⁻¹ | kon [4]: 533000 M⁻¹ s⁻¹ | binding result [5]: no binding | binding result [6]: no binding | binding result [7]: no binding | binding result [8]: no binding | human B cell proliferation, no crosslinking, % Max Activity [9]: 8.6% | human B cell proliferation, no crosslinking, EC50 [9]: > 16.7 nM | human B cell proliferation, with protein G crosslinking, % Max Activity [9]: 89.1% | human B cell proliferation, with protein G crosslinking, EC50 [9]: 0.4 nM | Ligand Binding Inhibition (%) [10]: -16% | Ligand Binding Inhibition (%) [11]: -3%
B3: 30A12 (antibody, IgG4, V domains shown)
VH: EVQLLESGGGLVQPGGSLRLSCAASGFTFSRNAMSWVRQAPGKGLEWVSATGGSGISTYYADSVKGRFTISRDNSKNTLYLQMNSLRAEDTAVYYCARGYSNSWWYFDYWGQGTLVTVSS
VL: QSALTQPASVSGSPGQSITISCTGTSSDVGNYNLVSWYQQHPGKAPKLMIFEVNQRPSGVSNRFSGSKSGTTASLTISGLQAADEADYFCCSYTTSSTYVIFGGGTKLTVLG
notes: also called 4878-1

human B cell proliferation, no crosslinking, EC50 [1]: > 16.7 nM | human B cell proliferation, no crosslinking, Max Fold Change [1]: 1.19 fold | human B cell proliferation, with protein G crosslinking, EC50 [1]: 0.43 nM | human B cell proliferation, with protein G crosslinking, Max Fold Change [1]: 18.1 fold | Ligand Binding Inhibition (%) [2]: 24% | Kd [3]: 1.72 nM | koff [3]: 0.00193 s⁻¹ | kon [3]: 1.13e+06 M⁻¹ s⁻¹ | Kd [4]: 0.88 nM | koff [4]: 0.00108 s⁻¹ | kon [4]: 1.23e+06 M⁻¹ s⁻¹ | binding result [5]: no binding | binding result [6]: no binding | binding result [7]: no binding | binding result [8]: no binding | human B cell proliferation, no crosslinking, % Max Activity [9]: 6% | human B cell proliferation, no crosslinking, EC50 [9]: > 16.7 nM | human B cell proliferation, with protein G crosslinking, % Max Activity [9]: 70.5% | human B cell proliferation, with protein G crosslinking, EC50 [9]: 0.5 nM | Ligand Binding Inhibition (%) [10]: 21% | Ligand Binding Inhibition (%) [11]: 3%
B4: 4G7 (antibody, IgG4, V domains shown)
VH: QVQLVQSGAEVKKPGASVKVSCKASGYTFAGYYMHWVRQAPGQGLEWMGWINPDSGGTNFAQQFQGRVTMTRDTSISTAYMEVSRLRSDDTAVFYCAREKITMTGIYFDYWGQGTLVTVSS
VL: DIQMTQSPSSLSASVGDILTITCRASQNITTYLNWYQQKPGKAPNLLISAASRLRSGVPSRFSGSGSGTDFTLTISSLQPVDFTTFYCQQTFTTPWTFGQGTKVEIKR
notes: also called 4869-1
